Assay results: patent US8759300

B1: FN630-648 … (peptide)
peptide: WNAPQPSHISKYILRWRPK
B2: peptide 3 … (peptide)
peptide: NGQTPIQRTIKPDVRSYTITGLQPGT
B3: peptide 1 (FN634-658) … (peptide)
peptide: QPSHISKYILRWRPKNSVGRWKEAT
B4: peptide 1A (FN634-648) … (peptide)
peptide: QPSHISKYILRWRPK
B5: peptide 4 (FN2043-2067) … (peptide)
peptide: QPSVGQQMIFEEHGFRRTTPPTTAT
B6: peptide 2 (FN680-704) … (peptide)
peptide: QLISIQQYGHQEVTRFDFTTTSTST
B7: peptide 1B … (peptide)
peptide: ILRWRPKNSVGRWK

Key:
[1] = molecular target: platelet-derived growth factor-BB (PDGF-BB) (human) (UniProt P01127); assay: peptide binding to PDGF-BB
[2] = molecular target: transforming growth factor-β1 (TGF-β1) (human) (UniProt P01137); assay: equilibrium binding
[3] = molecular target: platelet-derived growth factor-BB (PDGF-BB) (human) (UniProt P01127); assay: equilibrium binding
[4] = molecular target: platelet-derived growth factor-BB (PDGF-BB) (human) (UniProt P01127); assay: method not restated (same value as FN634-648 in paragraph 247)

transforming growth factor-β1 (TGF-β1) (human), sequence (P01137 279-390 limits assumed): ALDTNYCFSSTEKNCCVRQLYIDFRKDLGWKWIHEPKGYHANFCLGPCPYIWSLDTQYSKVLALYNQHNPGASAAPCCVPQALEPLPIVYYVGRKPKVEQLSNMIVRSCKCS
platelet-derived growth factor-BB (PDGF-BB) (human), sequence (P01127 82-190 limits assumed): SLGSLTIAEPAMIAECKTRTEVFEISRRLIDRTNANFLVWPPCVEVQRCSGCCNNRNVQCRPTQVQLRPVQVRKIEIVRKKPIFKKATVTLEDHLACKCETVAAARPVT

Binder | Kd [1] | Kd [2] | Kd [3] | Kd [4]
B1 | 340 nM |  |  | 
B2 |  | 140 nM |  | 
B3 | 250 nM | 130 nM | 250 nM | 
B4 | 450 nM | 440 nM |  | 450 nM
B5 |  | 100 nM |  | 
B6 | 110 nM | 270 nM |  | 
B7 |  | 400 nM |  | 
